{"source": "paper PMC8136776", "key": {"mPOLγA A449T;mPOLγB": {"molecular_target": "mPOLγA A449T;mPOLγB (Mus musculus;Mus musculus, UniProt P54099;Q9QZM2 26-1218;17-459, A450T|)", "sequence (Q9QZM2 17-459, stated change not applied, one chain of several)": "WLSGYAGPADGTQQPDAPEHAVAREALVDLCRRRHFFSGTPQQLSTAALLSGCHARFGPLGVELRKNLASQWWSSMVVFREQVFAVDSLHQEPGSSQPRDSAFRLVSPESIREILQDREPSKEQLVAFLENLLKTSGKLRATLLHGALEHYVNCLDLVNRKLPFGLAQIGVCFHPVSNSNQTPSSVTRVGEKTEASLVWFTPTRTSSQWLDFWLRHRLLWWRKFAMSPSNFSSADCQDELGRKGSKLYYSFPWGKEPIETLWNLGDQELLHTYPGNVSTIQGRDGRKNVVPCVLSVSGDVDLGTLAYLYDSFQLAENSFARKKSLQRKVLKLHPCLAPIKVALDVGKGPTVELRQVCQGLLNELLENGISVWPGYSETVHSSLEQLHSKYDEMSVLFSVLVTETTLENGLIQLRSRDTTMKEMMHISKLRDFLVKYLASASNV", "test": "EMSA"}, "mPOLγA A449T": {"molecular_target": "T1, mPOLγA A449T (Mus musculus, UniProt P54099 26-1218, A450T)", "T1 sequence": "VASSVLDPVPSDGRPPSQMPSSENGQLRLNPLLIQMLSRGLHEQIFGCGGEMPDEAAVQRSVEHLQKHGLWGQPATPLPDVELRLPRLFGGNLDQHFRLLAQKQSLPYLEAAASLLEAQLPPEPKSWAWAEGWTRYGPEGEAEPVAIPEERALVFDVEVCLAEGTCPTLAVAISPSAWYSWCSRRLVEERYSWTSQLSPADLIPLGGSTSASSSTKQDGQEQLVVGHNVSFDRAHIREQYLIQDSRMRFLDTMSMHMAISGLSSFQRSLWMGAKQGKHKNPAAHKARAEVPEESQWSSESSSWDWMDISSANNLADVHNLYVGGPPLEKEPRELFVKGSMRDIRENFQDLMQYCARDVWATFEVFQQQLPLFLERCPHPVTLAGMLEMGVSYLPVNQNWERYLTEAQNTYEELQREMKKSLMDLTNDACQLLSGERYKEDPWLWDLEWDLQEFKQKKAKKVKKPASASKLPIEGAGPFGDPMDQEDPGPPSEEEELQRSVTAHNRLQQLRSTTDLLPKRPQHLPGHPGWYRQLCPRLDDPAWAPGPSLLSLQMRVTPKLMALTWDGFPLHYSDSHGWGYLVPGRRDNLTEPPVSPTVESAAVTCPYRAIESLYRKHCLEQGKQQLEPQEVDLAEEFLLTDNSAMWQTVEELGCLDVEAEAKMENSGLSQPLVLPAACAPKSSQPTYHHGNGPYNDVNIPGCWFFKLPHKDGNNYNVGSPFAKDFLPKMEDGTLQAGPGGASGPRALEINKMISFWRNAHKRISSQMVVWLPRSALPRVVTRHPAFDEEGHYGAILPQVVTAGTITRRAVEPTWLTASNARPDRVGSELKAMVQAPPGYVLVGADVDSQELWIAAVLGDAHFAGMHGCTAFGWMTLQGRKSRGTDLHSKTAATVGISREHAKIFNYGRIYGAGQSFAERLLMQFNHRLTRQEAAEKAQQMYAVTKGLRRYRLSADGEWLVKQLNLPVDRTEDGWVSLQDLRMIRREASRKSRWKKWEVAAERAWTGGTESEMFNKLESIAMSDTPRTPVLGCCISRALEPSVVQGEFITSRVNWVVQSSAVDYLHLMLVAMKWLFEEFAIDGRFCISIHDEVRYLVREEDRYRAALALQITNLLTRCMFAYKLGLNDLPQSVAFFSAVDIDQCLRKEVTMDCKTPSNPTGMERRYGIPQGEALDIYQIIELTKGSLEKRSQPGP", "test": "EMSA"}}}
{"binder": "36/21-nt primer-template (mixed) DNA 1: TTTTTTTTTTATCCGGGCTCCTCTAGACTCGACCGC DNA 2: GCGGTCGAGTCTAGAGGAGCC", "values": [{"measurement": "binding signal", "setting": "mPOLγA A449T;mPOLγB", "value": "1.75 fold lower binding than WT holoenzyme"}, {"measurement": "binding signal", "setting": "mPOLγA A449T", "value": "~3.4 fold lower binding than WT"}]}
